Measurements from article PMC4303003, “Repressive mutations restore function-loss caused by the disruption of trimerization in Escherichia coli multidrug transporter AcrB” (Frontiers in Microbiology, 2015).

Target: the molecule itself
Experiment: native gel or EMSA; BN-PAGE of purified AcrB proteins; loading buffer with 1% dodecylmaltoside, 0.1% Coomassie G-250, pH 7.0; 4-15% gradient gel, 15 mA, 4°C, 2 h; trimer and monomer bands quantified with ImageJ; trimer to monomers

B1: wild type AcrB (Escherichia coli multidrug transporter AcrB) (natural protein)
chain: MPNFFIDRPIFAWVIAIIIMLAGGLAILKLPVAQYPTIAPPAVTISASYPGADAKTVQDTVTQVIEQNMNGIDNLMYMSSNSDSTGTVQITLTFESGTDADIAQVQVQNKLQLAMPLLPQEVQQQGVSVEKSSSSFLMVVGVINTDGTMTQEDISDYVAANMKDAISRTSGVGDVQLFGSQYAMRIWMNPNELNKFQLTPVDVITAIKAQNAQVAAGQLGGTPPVKGQQLNASIIAQTRLTSTEEFGKILLKVNQDGSRVLLRDVAKIELGGENYDIIAEFNGQPASGLGIKLATGANALDTAAAIRAELAKMEPFFPSGLKIVYPYDTTPFVKISIHEVVKTLVEAIILVFLVMYLFLQNFRATLIPTIAVPVVLLGTFAVLAAFGFSINTLTMFGMVLAIGLLVDDAIVVVENVERVMAEEGLPPKEATRKSMGQIQGALVGIAMVLSAVFVPMAFFGGSTGAIYRQFSITIVSAMALSVLVALILTPALCATMLKPIAKGDHGEGKKGFFGWFNRMFEKSTHHYTDSVGGILRSTGRYLVLYLIIVVGMAYLFVRLPSSFLPDEDQGVFMTMVQLPAGATQERTQKVLNEVTHYYLTKEKNNVESVFAVNGFGFAGRGQNTGIAFVSLKDWADRPGEENKVEAITMRATRAFSQIKDAMVFAFNLPAIVELGTATGFDFELIDQAGLGHEKLTQARNQLLAEAAKHPDMLTSVRPNGLEDTPQFKIDIDQEKAQALGVSINDINTTLGAAWGGSYVNDFIDRGRVKKVYVMSEAKYRMLPDDIGDWYVRAADGQMVPFSAFSSSRWEYGSPRLERYNGLPSMEILGQAAPGKSTGEAMELMEQLASKLPTGVGYDWTGMSYQERLSGNQAPSLYAISLIVVFLCLAALYESWSIPFSVMLVVPLGVIGALLAATFRGLTNDVYFQVGLLTTIGLSAKNAILIVEFAKDLMDKEGKGLIEATLDAVRMRLRPILMTSLAFILGVMPLVISTGAGSGAQNAVGTGVMGGMVTATVLAIFFVPVFFVVVRRRFSRKNEDIEHSHTVDHH
notes: AcrB, inner membrane RND multidrug transporter of Escherichia coli, encoded on plasmid pQE70-AcrB; also called WT AcrB; WT; source: E. coli BW25113ΔacrB transformed with pQE70-AcrB (in cells for cross-linking); purified as described (Lu et al., 2011) for BN-PAGE
- binding result: binds
